Data on four molecules can be found in publication PMC11157272, “Fructose-1-kinase has pleiotropic roles in Escherichia coli” (The Journal of Biological Chemistry, 2023).

Data set [1] deals with the molecule itself. Briefly: atomic force microscopy; single-protein samples (FruK+DNA, Cra+DNA) in 50 mM Hepes, 100 mM KCl, 0.1 mM EDTA, 10 mM MgCl2, 0.3 mM DTT, pH 7.0, 60 min at room temperature, deposited on functionalised mica; molecular volumes converted to molecular weights.
Data set [2] concerns the target T1, catabolite repressor activator protein (WT Cra), untagged (E. coli), P0ACP1.
T1 chain: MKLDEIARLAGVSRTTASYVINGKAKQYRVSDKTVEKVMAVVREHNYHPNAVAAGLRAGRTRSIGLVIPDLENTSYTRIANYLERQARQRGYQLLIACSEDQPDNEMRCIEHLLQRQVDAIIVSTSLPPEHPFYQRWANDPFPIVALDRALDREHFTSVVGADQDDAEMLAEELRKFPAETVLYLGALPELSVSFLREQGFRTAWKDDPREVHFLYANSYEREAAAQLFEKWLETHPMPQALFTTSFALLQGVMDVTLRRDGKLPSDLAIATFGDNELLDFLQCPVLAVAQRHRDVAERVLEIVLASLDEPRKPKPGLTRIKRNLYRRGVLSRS
In words: BLI; equilibrium BLI (Octet RED96): biotinylated operator DNA on streptavidin tips, dipped into pre-equilibrated 2.5 nM Cra dimer plus varied FruK; 50 mM Hepes, 0.1 M KCl, 0.1 mM EDTA, 10 mM MgCl2, pH 7.0, 0.3 mM DTT, 0.1 mg/mL BSA; room temperature; global fit to Equation 2 with n assumed 1. Background: Biolayer interferometry detects binding as a change in optical thickness at a sensor tip.

For data set [3], the target named is T2, His-tagged Cra (pET3a-Cra-C-His) for biolayer interferometry (E. coli), P0ACP1.
T2 chain: T1 chain
Described as above.

The target of data set [4] is fructose-1-kinase (FruK), untagged, expressed from pET-3a and purified (E. coli), P0AEW9. In words: atomic force microscopy; single-protein samples (FruK+DNA, Cra+DNA) in 50 mM Hepes, 100 mM KCl, 0.1 mM EDTA, 10 mM MgCl2, 0.3 mM DTT, pH 7.0, 60 min at room temperature, deposited on functionalised mica; molecular volumes converted to molecular weights.
In data set [5] the target is T1, catabolite repressor activator protein …. Briefly: atomic force microscopy; Cra, FruK and 331 bp fruBKA promoter DNA mixed (20 nM Cra/20 nM FruK and 20 nM Cra/10 nM FruK), 50 mM Hepes, 100 mM KCl, 0.1 mM EDTA, 10 mM MgCl2, 0.3 mM DTT, pH 7.0, 60 min at room temperature, deposited on functionalised mica; DNA-bound and DNA-free particles; volumes converted to molecular weights and clustered.

The target in a further data set is Cra (FruR), WT (Escherichia coli (gene from strain …, UniProt P0ACP1 1-334)). In words: BLI; 100 nM Cra; BLI: 50 mM Hepes, 100 mM KCl, 0.1 mM EDTA, 10 mM MgCl2, 0.3 mM DTT, 0.1 mg/mL BSA, pH 7.0, about room temperature; concentrations as dimer. To be noted: protein: recombinant; tags: none; chain copies: 2; label: biotin.

B1: catabolite repressor activator protein (WT Cra), untagged (natural protein, E. coli, UniProt P0ACP1 1-334, looked up)
chain: T1 chain
notes: also called FruR; source: E. coli 3.300, constitutively over-expressed from pHG165a, in lysate; E. coli BLIM, constitutively expressed, purified (ammonium sulfate precipitation, phosphocellulose)
The term stoichiometry N denotes the number of molecules, sites or subunits per partner or assembly. As for B1, the “stoichiometry N” value in data set [1] stood at 2.

B2: fructose-1-kinase (FruK), untagged, expressed from pET-3a and purified, P0AEW9 1-312 (enzyme)
chain: MSRRVATITLNPAYDLVGFCPEIERGEVNLVKTTGLHAAGKGINVAKVLKDLGIDVTVGGFLGKDNQDGFQQLFSELGIANRFQVVQGRTRINVKLTEKDGEVTDFNFSGFEVTPADWERFVTDSLSWLGQFDMVCVSGSLPSGVSPEAFTDWMTRLRSQCPCIIFDSSREALVAGLKAAPWLVKPNRRELEIWAGRKLPEMKDVIEAAHALREQGIAHVVISLGAEGALWVNASGEWIAKPPSVDVVSTVGAGDSMVGGLIYGLLMRESSEHTLRLATAVAALAVSQSNVGITDRPQLAAMMARVDLQPFN
modifications: not checked
Broadly, the Kd is the equilibrium constant for the complex coming apart. With B2, the values for the Kd in data set [2] and in data set [3] were 2 nM and 1.6 nM, respectively. The stoichiometry N in data set [4] was found to be 2. In data set [5], this molecule returned a stoichiometry N (FruK homodimer per Cra homodimer) of 1.

B3: His-tagged FruK (pET3a) for biolayer interferometry, P0AEW9 1-312 (enzyme)
chain: B2 chain
modifications: not checked
Turning to B3, the Kd in data set [2] stood at 2.1 nM.

B4: fruBproximal (dsDNA)
DNA 1: ATGCATGTTGTGTGGTTCTTGAAACGTTTCAGCTCACACAGGTCC
DNA 2: GGACCTGTGTGAGCTGAAACGTTTCAAGAACCACACAACATGCAT
modifications: 5' biotin
As for B4, the binding result with Cra (FruR), WT is “binds”.
